These results are taken from PMC9135708 (2022).

Holding throughout (assay): BLI
A general note: Biolayer interferometry detects binding as a change in optical thickness at a sensor tip.

Assay [1] has as its target TY01.
In assay [2] the target is TY19.
The target of assay [3] is TY07.
For assay [4], the target named is AKBR-5.
The target of assay [5] is AKBR-1.

B1: Plasmodium yoelii TRAP ectodomain (PyTRAP) (domain or fragment)
chain: NGQETLDEIKYSEEVCTEQIDIHILLDGSGSIGYSNWKAHVIPMLNTLVDNLNISNDEINVSLTLFSTNSRELIKLKGYGSTSKDSLRFILAHLQNNYSPNGNTNLTSALLVVDTLINERMYRPDAIQLAIILTDGIPNDLPRSTAVVHQLKRKHVNVAIIGVGAGVNNEYNRILVGCDRYAPCPYYSSGSWNEAQNMIKPFLTKVCQEVERIAHCGKWEEWSECSTTCDEGRKIRRRQILHPGCVSEMTTPCKVRDCPQIPIPPVIPNKIPEKPSNPEEPVNPNDPNDPNNPNNPNNPNNPNNPNNPNNPNNPNNPNNPNNPNNPNNPNNPNNPNNPNNPNNPNNPNNPNNPNNPNNPNDPSNPNNPNPKKRNPKRRNPNKPKPNKPNPNKPNPNEPSNPNKPNPNEPSNPNKPNPNEPSNPNKPNPNEPSNPNKPNPNEPLNPNEPSNPNEPSNPNAPSNPNEPSNPNEPSNPNEPSNPNEPSNPNEPSNPKKPSNPNEPSNPNEPLNPNEPSNPNEPSNPNEPSNPEEPSNPKEPSNPNEPSNPEEPNPEEPSNPKEPSNPEEPINPEELNPKEPSNPEESNPKEPINPEESNPKEPINPEDNENPLIIQDEPIEPRNDSNVIPILPIIPQKGNNIPSNLPENPSDSEVEYPRPNDNGENSNNTMKSKKNIPNEPIPSPGDNPYKGHEERIPKPHRSNDDYVYDNNVNKNNKDEPEIPNNEYEEDKNKNQSKSNNGYK
modifications: site-specific biotinylation using BirA ligase, when required
Regarding B1, the Kd in assay [1] was found to be 1.65 nM; in assay [2], 307 nM; in assay [3], 26.5 nM. Also, the results for the off-rate constant (koff) in assay [1], in assay [2] and in assay [3] were 0.000498 s⁻¹, 0.0495 s⁻¹ and 0.00397 s⁻¹, respectively.

B2: Plasmodium falciparum TRAP ectodomain (PfTRAP) (domain or fragment)
chain: RDVQNNIVDEIKYSEEVCNDQVDLYLLMDCSGSIRRHNWVNHAVPLAMKLIQQLNLNDNAIHLYVNVFSNNAKEIIRLHSDASKNKEKALIIIRSLLSTNLPYGRTNLTDALLQVRKHLNDRINRENANQLVVILTDGIPDSIQDSLKESRKLSDRGVKIAVFGIGQGINVAFNRFLVGCHPSDGKCNLYADSAWENVKNVIGPFMKAVCVEVEKTASCGVWDEWSPCSVTCGKGTRSRKREILHEGCTSEIQEQCEEERCPPKWEPLDVPDEPEDDQPRPRGDNSSVQKPEENIIDNNPQEPSPNPEEGKDENPNGFDLDENPENPPNPDIPEQKPNIPEDSEKEVPSDVPKNPEDDREENFDIPKKPENKHDNQNNLPNDKSDRNIPYSPLPPKVLDNERKQSDPQSQDNNGNRHVPNSEDRETRPHGRNNENRSYNRKYNDTPKHPEREEHEKPDNNKKKGESDNKYK
modifications: site-specific biotinylation using BirA ligase, when required
On to B2, for which, in assay [4], the dissociation constant Kd came out at 52.9 nM and the koff stood at 0.00611 s⁻¹. In assay [5], the affinity, expressed as Kd, was 194 nM and the koff is 0.00368 s⁻¹.

By Kd is commonly meant the concentration at which binding is half-saturated. By koff is commonly meant the rate constant with which the complex falls apart. Low readings indicate slow dissociation, high ones fast dissociation.
